Tests used:
[1] = target: the molecule itself; assay: cross-linking; purified DnaD^WHD or variant at 16 uM with 0.03%, 0.06%, 0.12% glutaraldehyde; 20 mM HEPES pH 7.7, 150 mM NaCl, 1 mM DTT, 1 mM EDTA, 5% glycerol; 15 minutes at room temperature; SDS-polyacrylamide gel, coomassie blue
[2] = target: the molecule itself; assay: SEC; size exclusion chromatogram of wild type DnaD^WHD or the ΔNT variant, absorbance at 280 nm (S2 Fig B)

B1: purified DnaD^WHD F51A (B. subtilis) (domain or fragment, UniProt P39787 1-128, looked up)
chain: MKKQQFIDMQEQGTSTIPNLLLTHYKQLGLNETELILLLKIKMHLEKGSYAPTPNQLQEGMSISVEECTNRLRMFIQKGFLFIEECEDQNGIKFEKYSLQPLWGKLYEYIQLAQNQTQERKAEGEQKS
notes: DnaD, B. subtilis, winged helix domain, amino acids 1-128, F51A; source: E. coli BL21 (DE3), purified (amylose, Ulp1 digestion, HiTrap Q, Sephacryl S-200); not shown: HIS6, N-terminal, cleaved; MBP, N-terminal, cleaved; SUMO, N-terminal, cleaved
[1]
  stoichiometry N: 4

B2: purified DnaD^WHD I83A (B. subtilis) (domain or fragment, UniProt P39787 1-128, looked up)
chain: MKKQQFIDMQEQGTSTIPNLLLTHYKQLGLNETELILLLKIKMHLEKGSYFPTPNQLQEGMSISVEECTNRLRMFIQKGFLFAEECEDQNGIKFEKYSLQPLWGKLYEYIQLAQNQTQERKAEGEQKS
notes: DnaD, B. subtilis, winged helix domain, amino acids 1-128, I83A; source: E. coli BL21 (DE3), purified (amylose, Ulp1 digestion, HiTrap Q, Sephacryl S-200); not shown: HIS6, N-terminal, cleaved; MBP, N-terminal, cleaved; SUMO, N-terminal, cleaved
[1]
  stoichiometry N: 4

B3: purified DnaD^WHD, wild type (B. subtilis) (domain or fragment, UniProt P39787 1-128, looked up)
chain: MKKQQFIDMQEQGTSTIPNLLLTHYKQLGLNETELILLLKIKMHLEKGSYFPTPNQLQEGMSISVEECTNRLRMFIQKGFLFIEECEDQNGIKFEKYSLQPLWGKLYEYIQLAQNQTQERKAEGEQKS
notes: DnaD, B. subtilis, winged helix domain, amino acids 1-128; native N-terminus after Ulp1; also called WT; source: E. coli BL21 (DE3), purified (amylose, Ulp1 digestion, HiTrap Q, Sephacryl S-200); not shown: HIS6, N-terminal, cleaved; MBP, N-terminal, cleaved; SUMO, N-terminal, cleaved
[1]
  binding result: binds

B4: purified DnaD^WHD ΔNT variant (B. subtilis) (domain or fragment, UniProt P39787 19-128, looked up)
chain: NLLLTHYKQLGLNETELILLLKIKMHLEKGSYFPTPNQLQEGMSISVEECTNRLRMFIQKGFLFIEECEDQNGIKFEKYSLQPLWGKLYEYIQLAQNQTQERKAEGEQKS
notes: DnaD, B. subtilis, winged helix domain (1-128) without the N-terminal extension (residues 1-18); The limits 19-128 are worked out from the printed extension (1-18) and the limits of DnaD^WHD (1-128); the purification is that told for DnaD^WHD and its variants; source: E. coli BL21 (DE3), purified (amylose, Ulp1 digestion, HiTrap Q, Sephacryl S-200); not shown: HIS6, N-terminal, cleaved; MBP, …
[2]
  stoichiometry N: 2
